Assays:
[1] = target: T1, Arabidopsis thaliana DECREASE IN DNA …ON 1 (DDM1), full length (Arabidopsis thaliana, UniProt Q9XFH4 1-764); test: cross-linking; nucleosomes (0.2 µM) with AtDDM1 (0.4 µM), 60 mM NaCl, 1 mM MgCl2, 1 mM ADP, pH 7.5, 25 °C; 1.6 mM DSS-H12/D12 (lysine-lysine), LC-MS/MS, xQuest/xProphet; conditions: both partners purified
T1 construct: DDM1, Snf2-type chromatin remodeling factor, Arabidopsis thaliana, full length; His6-SUMO removed with HRV 3C protease; also called AtDDM1; source: E. coli BL21(DE3) Codon(+) RIL, purified (Ni-NTA, RESOURCE Q flow-through, RESOURCE S, Superdex 200); not shown: His6, N-terminal, cleaved; SUMO, N-terminal, cleaved
T1 sequence (Q9XFH4 whole entry): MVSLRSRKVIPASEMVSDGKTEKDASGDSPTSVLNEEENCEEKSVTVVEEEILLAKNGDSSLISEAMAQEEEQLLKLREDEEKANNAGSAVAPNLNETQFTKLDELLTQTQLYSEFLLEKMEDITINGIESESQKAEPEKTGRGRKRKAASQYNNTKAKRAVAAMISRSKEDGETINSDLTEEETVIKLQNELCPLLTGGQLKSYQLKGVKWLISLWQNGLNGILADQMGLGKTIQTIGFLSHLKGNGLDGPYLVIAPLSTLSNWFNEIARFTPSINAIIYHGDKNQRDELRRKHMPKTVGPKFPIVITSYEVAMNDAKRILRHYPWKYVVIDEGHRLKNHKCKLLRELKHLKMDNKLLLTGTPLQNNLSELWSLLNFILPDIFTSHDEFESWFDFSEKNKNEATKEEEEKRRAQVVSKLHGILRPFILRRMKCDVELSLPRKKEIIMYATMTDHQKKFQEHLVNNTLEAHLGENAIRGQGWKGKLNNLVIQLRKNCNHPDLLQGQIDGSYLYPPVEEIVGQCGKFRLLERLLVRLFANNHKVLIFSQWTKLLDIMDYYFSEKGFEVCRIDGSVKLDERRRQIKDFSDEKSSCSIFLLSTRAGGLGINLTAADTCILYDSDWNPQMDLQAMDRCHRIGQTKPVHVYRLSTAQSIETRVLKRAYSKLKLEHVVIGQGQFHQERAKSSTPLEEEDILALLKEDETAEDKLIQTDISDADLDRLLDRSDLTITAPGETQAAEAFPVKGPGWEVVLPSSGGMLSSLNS

[2] = target: T2, Arabidopsis thaliana histone H3.1 (Arabidopsis thaliana, UniProt P59226 1-136); test: as above; conditions: both partners purified
T2 construct: His6 tag removed with thrombin (pET-15b); also called AtH3.1; source: E. coli BL21(DE3) Codon(+) RIL, purified (Ni-NTA and SP cation exchange, denaturing); in reconstituted nucleosomes; not shown: His6, N-terminal, cleaved

binding result [1]: binds | binding result [2]: binds
B1: Arabidopsis thaliana histone H2A.W.6 (natural protein)
chain: MESTGKVKKAFGGRKPPGAPKTKSVSKSMKAGLQFPVGRITRFLKKGRYAQRLGGGAPVYMAAVLEYLAAEVLELAGNAARDNKKSRIIPRHLLLAIRNDEELGKLLSGVTIAHGGVLPNINSVLLPKKSATKPAEEKATKSPVKSPKKA
notes: His6 tag removed with thrombin (pET-15b); also called AtH2A.W; AtH2A.W.6; source: E. coli BL21(DE3) Codon(+) RIL, purified (Ni-NTA and SP cation exchange, denaturing); in reconstituted nucleosomes; not shown: His6, N-terminal, cleaved

Source: paper PMC11239853, “Molecular and structural basis of the chromatin remodeling activity by Arabidopsis DDM1” (Nature Communications, 2024)
